Assay results published in the nanobody polyreactivity screen of Harvey et al. (2022).

Assay: yeast display, Sf9 membrane polyspecificity reagent, FACS + sequencing; frameworks hold sequencing errors
In short: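 Galactose-induced (36–48 hours) yeast carrying a synthetic nanobody display library were exposed to 10% biotinylated, detergent-solubilized Sf9 membrane reagent at 4 °C for 1 hour. FACS followed streptavidin microbead enrichment, using low and high (top ~1%) gates for expression (anti-HA) and reagent binding (streptavidin). Colony PCR, MiSeq 2 × 250 sequencing and CDR-length filtering followed. Labels for polyreactivity reflect the gate of origin.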

Sequence	polyreactivity (PSR sort gate)
QVQLVESGGGLVQAGASLRLSCAASVSIFDTNAMGWYRQAPGKERELVASISSGGGSTYYADSVKGRFTISRDNAKNTVYLQMNSLKPEDTAVYFCARRIGHGSRPYWLETWRYAYDYWGQGSQVTVSS	low polyreactivity
QVQLVESGGGLVQAGATIRLSCAASVRTFESNALGWYRQEPGKERELVAGITSGGITNYADSVKGRFTISRDNAKNNVYLQMNSLKPEDTAVYYCEFYYWGQGTQVTVSS	low polyreactivity
QVQLVESGGGLVQAGCRLRLSCAAAAYIYRYAMGWYIQAPGKEREFVAAITWNGGSTYYADSVNGRFTISRDNAKITVYLQMNSLKPEDTGVYYCADDWSYYRRHFDYWGHGTQVTVSS	high polyreactivity
QVQLVESGGGLVQAGCSLGLSCAASGRIVDYKAMGWYRQAPGKEWELVATLTSSSVRTHYPDSLKGRFSISRDNAKNTVYLQMNSLNPEDTSVYYWNAAYGPRYPRRYDYWGQGTQVTVSS	low polyreactivity
QVQLVESGGGLVQAGCSLRGSCAAYRSTFIRYAMGWSRPAPGKERELVAAITWRGGSTYYADSVKGRFTISRDNEKNTVYLQMKSLKPDDSAVSFCAARDRDTRNYYWVQGTQVTVSS	high polyreactivity
QVQLVESGGGLVQAGCSLRISCAASGITFGRKTMGWSRQAPGKERELVAAIDSGGNTYADSVKGRFTISRDNAKNTVYLQMNSLKPEDTAVYYCAVDGGEFSSYGYWGQGTQVTVSS	low polyreactivity
QVQLVESGGGLVQAGCSLRLICAAAGIIFSSYAMGWYRQAPGKERELVAAISWNGGRTYYADSVKGRFTISRDNAKNTVYLQMNSLKPEDTAVYYCAAPHSVPDLHSGDYWGQGTQVTVSS	low polyreactivity
QVQLVESGGGLVQAGCSLRLICAASGLYAMGWYRQAPGKERELVADINSSGGSITNYADSVKGRFTISRDNAKNTVYLQMNSLKPEDTAVYDCAAPALGNYFYGYDYWGQGTQVTVSS	low polyreactivity
QVQLVESGGGLVQAGCSLRLRCAASGFTFYSYAMGWYRQAPGKERELVANITIGGSTYADSVKGRFTISRDNAKNNVYLQMNSLNPEDTAVYYCARGYRVVGDPLYGEYDYWGQGSQVTVSS	low polyreactivity
QVQLVESGGGLVQAGCSLRLSCAASGFIFGPNAMGWYRQAPGKERELVAAISWIGSSTYYADSVKGRFTISRDNAKNTVYLQMNSLKPQDNAVYYCAADSSERRLMDFDYWGQGTQVTVSS	low polyreactivity
QVQLVESGGGLVQAGCSLRLSCAASGFIFIRYAKGWYRQAPGQESELVASISSGGSTYYADSVKGRFTISRDNAKNTVYLQMNSLKPEDTAVYYCAAVFSKGLEGDYWGQGTQVTVSS	high polyreactivity
QVQLVESGGGLVQAGCSLRLSCAASGFILNWYAMGCYRQAPGKERELVAAISWTTSDTYYADSVKGRFTISRDNAKHTVYLQMNSLKPEDQAVYYCATQGYISFPPPAYYEYNYWGQGTQETVSS	low polyreactivity
QVQLVESGGGLVQAGCSLRLSCAASGFILSDNAMGWYRQAPGKERELVAAINSGGSTYYADSVKGRFTISRDNAKNTVYFQMNSLKPEDSAVYYCAADYSTWLRAYDYWGQGTQVTVSS	low polyreactivity
QVQLVESGGGLVQAGCSLRLSCAASGFTFAKYAMGRYRQAPGKERELVAAITYRDGSTYYADSVKGRFTISRDYAKNTVYLQMNSLKPEDSAVYYCAAVASYVRYGYWGQGTQVTVSS	high polyreactivity
QVQLVESGGGLVQAGCSLRLSCAASGFTFFRNAMGWYRQAPGKERELVAAISGSGGSTYYADSVKGRFTISRDNAKNTVYLQMNSLKPEDTAVYYCATYSYPAKVREAYNYWGQGTQVTVSS	low polyreactivity
QVQLVESGGGLVQAGCSLRLSCAASGFTFGDNAMGWYRQAPGKDRELDARITGDGSTYYADSVKGRFTISRDNAKNTVYLQTNSLKPEDTAVYYCAADYSPRYTQIEYGYWGQGTQVTVSS	low polyreactivity
QVQLVESGGGLVQAGCSLRLSCAASGFTFRANGMGWYRQAPGKERELVATITSGGTTNYADSVKGRFTISRDNAKNTVYLQMNSLKPEDTAVYYCAKRFGPAYFRLYDYWGQGTQVTVSS	low polyreactivity
QVQLVESGGGLVQAGCSLRLSCAASGFTFRYYAMGSYRQAPGKERELVSAISQSGGLTFYADSVKGRFTISRDNAKITVYLQMNSLKPVDTAVFYCAAGRRTYPSKYGSWGQGSQVTVSS	high polyreactivity
QVQLVESGGGLVQAGCSLRLSCAASGGTFRSNAMGWYRKAPGKERELVAASTNYADSVKGRFTISRDNAKNTVYLQMNSLKPEDTAVYYCAAGPTDSQTGMDYWGQGTQVTVSS	low polyreactivity
QVQLVESGGGLVQAGCSLRLSCAASGGTFSLNAMGCYRQAPGKERELVAAITWTGDRTYYADSVKGRFTISRDNAKNTVYLQMNSLKPEDTAVYYCAAVGGYYPGDYWGQGTQVTVSS	low polyreactivity
QVQLVESGGGLVQAGCSLRLSCAASGITFELYAMGSYRQAPGKERELVAAISSNGGITFYADSVKGRFTISRDYAKNTVYLQMKSLKPEDTEVYYCAARYVRYPRYDYWGQGTQVTVSS	high polyreactivity

Sequence	polyreactivity (PSR sort gate)
QVQLVESGGGLVQAGCSLRLSCAASGITFTYYAMGWYRQAPGKERELVAAINTGGNTNYADSVKGRFTISRDYAKNSVYLQMNSLKPEDTAVYYCAAYWYYYWWYDYWGQGTQVSVSS	high polyreactivity
QVQLVESGGGLVQAGCSLRLSCAASGITFVYYAMGRYRQAAGKERELVAAITTGGSTNYADSVKGRFTISRDNAKYTVYLQMNSLKPEDTAVYYCNKRPVILYDYWGQGTQVTVSS	low polyreactivity
QVQLVESGGGLVQAGCSLRLSCAASGNTYYSYTMGWYRQAPGKERELVAAITGSGSTYYADSVKGRFTISRDNAKNTVYLQMNSLKPEDTAVYYCASRYVERHTDYYYWGQGTQVTVSS	low polyreactivity
QVQLVESGGGLVQAGCSLRLSCAASGRIDRRYAMGWYRQAPGKERDLFAAISSRGGRTYYADSVKGRFTISRDNAMNTVYLQMNSLKQEDTAVYYCAARPAGYGHYKYYYWGKGTQVTVSS	high polyreactivity
QVQLVESGGGLVQAGCSLRLSCAASGRIFRGNAMGWYRQAPGKERELVARITGNDGDTYYADSVKGRFTISRDNAKNTVYLQMNSLNPEDTAVYYCATDTSSYRRRYYYWGQGTQVTVSS	low polyreactivity
QVQLVESGGGLVQAGCSLRLSCAASGRIFRKNTMGWYIQAPGKEWELVAAISFRGASTYYADSVKGRFTISRDNAKNTVYLQMNSLKPEDTAVYYCATVRAHASRLGYDYWGQGTQVTVSS	high polyreactivity
QVQLVESGGGLVQAGCSLRLSCAASGRIFTHNAMGWYRPAPGKERELVAAITSGGRTTYADSVKGRFTFSRDNAKNTVYLQMHSLNPEDTAVYYCNADTGLGSLDFDKRDYWGQGTQVTVSS	low polyreactivity
QVQLVESGGGLVQAGCSLRLSCAASGRIFTSNAMGWYRQAPGTERELVAVISRRGGSTYYADSVKGRFTISRDNAMNTVYLQMNSLKPEDTAVYYCARRPYSYTRYEYWGQGTQVTVSS	low polyreactivity
QVQLVESGGGLVQAGCSLRLSCAASGRIIDGYAMGWYRQAPGKEREFVAAITWIGGRTYYADSVKGRFTISRDNAKITVYLHMNSLKPEDTAVYYCAVVQSRYRGRFDYWGQGTQVTVTS	high polyreactivity
QVQLVESGGGLVQAGCSLRLSCAASGRIITRYPMGWYRQAPGKERELVAAISYGGGGTYYADSVKGRFTISRDNAKNTVYLQMNSLKPDDTAVYYCATDDPLSQINEQGMDYWGQGTQVTVSS	low polyreactivity
QVQLVESGGGLVQAGCSLRLSCAASGRNFRYYAMGLYRQAPGKERELVAAIDTGDTYYADSVKGRFTISRDNAKYTGYLQMNSLKPEDTAVYYSAAEGSTSLDDYWGQGTQVTVSS	high polyreactivity
QVQLVESGGGLVQAGCSLRLSCAASGRTFGRNAMGWNRQAPGKERELVAAITSGGSTSYADSVKGRFTISRDNAKNTVYLQMNSLKPEDTAVYYCAADVRPYYTRRVWIQFDYWGQGTQVTVSS	high polyreactivity
QVQLVESGGGLVQAGCSLRLSCAASGRTFTLNAMGWYRQAPGKERELVADITYSDGDTYYADSVKGRFTISRDNAKNTVYLQMNSLIPEDTAGYYCAAGGYTDPGYEYWGQGTQVTVSS	low polyreactivity
QVQLVESGGGLVQAGCSLRLSCAASGRTFYHYGMGWYRQAPGKERELVAAINFSGGSTNYADSVKGRFTISRDNAKNTVYLQMNSLKTEDTAVYNCNKEGRPDRDYWGQGTQVTVSS	low polyreactivity
QVQLVESGGGLVQAGCSLRLSCAASGSIFAYYTMGWYRQAAGKERELVATISSGDITNYADSVKGRFTISRDNAKNSVYLQMNSLKPEDTAVYFCAAAELTSYYRTFIHKDYDFWGQGTQVSVSS	low polyreactivity
QVQLVESGGGLVQAGCSLRLSCAASGSIFDVNAMGWYRQAPGKERELVAAISQRGNRTYYADSVKGRFTISRDNAKNTVYLQMNSLKPEDTAVYYCNRGGWRQYDSWGQGTQVTVSS	high polyreactivity
QVQLVESGGGLVQAGCSLRLSCAASGSNFYRNSMRWYRQAPGKERELVAGITTRGGSTYYADSVKGRFTISRDNAKNTVYLQMNSLKPEDTEVYYCNARSYTGSYFKYYYWGQGTQVTVSS	high polyreactivity
QVQLVESGGGLVQAGCSLRLSCAASGSTFRKYAMGWYSQAPGKQREFVAAITSSGGSTYYSDSVKGRFTISRDKAKNTVYLLMNSLIPEDTAVYYCASRGVYVSTAYNYWGQGTQVTESS	high polyreactivity
QVQLVESGGGLVQAGCSLRLSCAASGSTFRRYAMGWYRQAPGKERELVAAISGGGTSTYYADSVEGRFTISRDNAKNTVDLQMNSLKPEDTAVYYCNAKTYYARYDYWGQGTQVSVSS	high polyreactivity
QVQLVESGGGLVQAGCSLRLSCAASGTFGLYAMGWYRQAPGKERELVAAIRARGGSTYYADSVKGRFTISRDNAKNTVYLQMNSLKPEDTAVYYCAAEFWDVSLARKQWYDYWGQGTQVSVSS	high polyreactivity
